According to the Human Domainome abundance scans (Beltran et al. 2025):
± gives the uncertainty stated by the source.

B1: Ankyrin-3, residues 4094 to 4171; numbered along this chain, Q12955 (parent)
chain: MAIVADHLGLSWTELARELNFSVDEINQIRVENPNSLISQSFMLLKKWVTRDGKNATTDALTSVLTKINRIDIVTLLE

Variants of: B1
Assay: abundance fitness (aPCA) (normalised: wild type 0, dead -1); higher = more abundant; growth selection in yeast, the domain comes from the species named
Conditions: Homo sapiens

Abundance fitness, by site and new letter:
A16: L -0.996 ± 0.15; Q -0.749 ± 0.17; S -0.907 ± 0.14; V -0.531 ± 0.1; P -0.895 ± 0.13; G -0.257 ± 0.052; H -0.601 ± 0.28; W -0.79 ± 0.2; D -0.813 ± 0.31; T -0.841 ± 0.21; R -0.893 ± 0.17; N -0.793 ± 0.23
E18: H -0.317 ± 0.15; M -0.339 ± 0.16; R -1.09 ± 0.21; C -0.531 ± 0.12; I -0.721 ± 0.22; W -0.825 ± 0.16; K -0.532 ± 0.3; G -0.455 ± 0.053; A -0.187 ± 0.053; Y -0.605 ± 0.17; D -0.614 ± 0.3; Q -0.388 ± 0.18; T -0.427 ± 0.17; F -0.451 ± 0.13; V -0.148 ± 0.053; S -0.625 ± 0.095
L10: Q 0.04 ± 0.074; V 0.029 ± 0.06; W -0.101 ± 0.078; P -0.04 ± 0.086; I -0.096 ± 0.19; E 0.05 ± 0.071; C -0.016 ± 0.089; G -0.043 ± 0.052; S 0.081 ± 0.053; F 0.032 ± 0.062; Y -0.104 ± 0.2; R -0.022 ± 0.052; M -0.114 ± 0.094; N -0.133 ± 0.21; H 0.124 ± 0.079; A -0.064 ± 0.068; D -0.011 ± 0.11; T -0.046 ± 0.079
W12: P -0.433 ± 0.11; S -0.968 ± 0.15; E -0.903 ± 0.2; I -0.738 ± 0.26; R -0.844 ± 0.12; V -0.753 ± 0.11; A -0.862 ± 0.16; M -0.844 ± 0.25; Q -0.534 ± 0.3; C -0.931 ± 0.28; L -0.838 ± 0.11; T -1.1 ± 0.43
D6: A -0.25 ± 0.069; R -0.163 ± 0.048; I -0.755 ± 0.42; L -0.352 ± 0.063; W -0.517 ± 0.079; C -0.418 ± 0.14; K 0.155 ± 0.038; M -0.299 ± 0.17; G -0.156 ± 0.05; E 0.096 ± 0.069; Y -0.342 ± 0.12; P -0.238 ± 0.078; N -0.067 ± 0.3; V -0.296 ± 0.07; S -0.258 ± 0.063; F -0.658 ± 0.36
F21: S -0.893 ± 0.13; N -0.57 ± 0.22; P -0.708 ± 0.12; A -0.842 ± 0.14; T -0.869 ± 0.32; G -0.7 ± 0.082; D -0.949 ± 0.34; H -0.842 ± 0.4; I -0.665 ± 0.21; M -0.561 ± 0.14; Q -0.694 ± 0.2; Y -0.358 ± 0.18; V -0.81 ± 0.1; W -0.978 ± 0.22; E -0.997 ± 0.2; C -1 ± 0.29
A2: N 0.08 ± 0.16; V -0.146 ± 0.049; W 0.169 ± 0.077; C -0.077 ± 0.1; P -0.193 ± 0.057; H -0.033 ± 0.077; F -0.035 ± 0.11; M -0.175 ± 0.1; Q 0.058 ± 0.072; K -0.095 ± 0.2; R 0.149 ± 0.044; D 0.173 ± 0.074; L -0.126 ± 0.067; E 0.224 ± 0.084; G 0.14 ± 0.051; T 0.077 ± 0.06; Y -0.037 ± 0.21
L19: C -0.793 ± 0.23; P -0.855 ± 0.12; S -1.05 ± 0.18; A -0.591 ± 0.089; V -0.651 ± 0.1; I -0.333 ± 0.14; M -0.33 ± 0.14; R -0.79 ± 0.094; Q -0.781 ± 0.22; G -1.01 ± 0.15; W -0.494 ± 0.078; H -0.694 ± 0.25; T -0.927 ± 0.28
M1: N -0.099 ± 0.28; I -0.321 ± 0.37; R -0.265 ± 0.11; E -0.365 ± 0.13; A -0.322 ± 0.1; T -0.801 ± 0.4; K -0.421 ± 0.1; G -0.566 ± 0.11; Y 0.23 ± 0.45; C -0.198 ± 0.23; V -0.151 ± 0.08; D -0.643 ± 0.42; H -0.587 ± 0.44
T13: I -0.02 ± 0.1; W -0.707 ± 0.1; M -0.054 ± 0.071; Q -0.201 ± 0.11; P 0.101 ± 0.058; S -0.078 ± 0.057; V -0.041 ± 0.055; N -0.309 ± 0.19; G -0.417 ± 0.062; L -0.104 ± 0.049; A -0.153 ± 0.064; H -0.178 ± 0.11; K -0.554 ± 0.21; C -0.546 ± 0.14; E 0.005 ± 0.084; D -0.35 ± 0.18
V4: S -0.766 ± 0.22; L -0.397 ± 0.057; Q -0.659 ± 0.19; F -0.789 ± 0.28; W -1.01 ± 0.38; K -0.806 ± 0.29; G -0.889 ± 0.099; A -0.253 ± 0.073; T -0.291 ± 0.08; P -0.921 ± 0.15; I -0.169 ± 0.17; M -0.963 ± 0.23; R -0.925 ± 0.11; E -1.01 ± 0.18; N -0.663 ± 0.22
N20: F -0.196 ± 0.12; D 0.093 ± 0.14; M -0.113 ± 0.086; C -0.348 ± 0.16; E -0.101 ± 0.073; H -0.035 ± 0.099; W -0.902 ± 0.17; V -0.608 ± 0.086; I -0.609 ± 0.31; K -0.169 ± 0.088; P -1 ± 0.16; G -0.081 ± 0.054; R -0.18 ± 0.047; Y -0.348 ± 0.12; A -0.162 ± 0.058; L -0.191 ± 0.055; Q -0.329 ± 0.093
L8: A -1.07 ± 0.23; M -0.574 ± 0.15; F -0.463 ± 0.4; W -0.552 ± 0.15; S -0.916 ± 0.17; Y -0.63 ± 0.3; V -0.769 ± 0.11; R -0.829 ± 0.11; P -1 ± 0.19; Q -0.755 ± 0.19; E -0.984 ± 0.22; C -0.787 ± 0.22; G -0.983 ± 0.14; K -0.696 ± 0.36
A5: V -0.484 ± 0.068; R -0.498 ± 0.076; C -0.359 ± 0.12; Y -0.745 ± 0.34; W -0.765 ± 0.13; L -0.921 ± 0.19; I -0.74 ± 0.31; P -0.899 ± 0.26; K -0.648 ± 0.18; H -0.716 ± 0.43; T -0.774 ± 0.18
R17: W -0.101 ± 0.1; Y -0.061 ± 0.092; A -0.033 ± 0.068; C -0.076 ± 0.12; Q -0.273 ± 0.12; L -0.06 ± 0.051; M -0.053 ± 0.099; V -0.161 ± 0.059; F -0.108 ± 0.15; E -0.074 ± 0.1; T -0.037 ± 0.063; H -0.182 ± 0.13; K 0.143 ± 0.083; I -0.412 ± 0.3; G -0.163 ± 0.058; P -0.869 ± 0.27; S -0.08 ± 0.04; D -0.203 ± 0.13; N 0.231 ± 0.2
I3: D -0.489 ± 0.16; Y -0.486 ± 0.16; Q -0.33 ± 0.076; M -0.081 ± 0.096; V -0.05 ± 0.053; E -0.342 ± 0.083; K -0.27 ± 0.11; P -0.46 ± 0.087; S -0.411 ± 0.062; L -0.027 ± 0.051; H -0.523 ± 0.17; G -0.506 ± 0.06; R -0.321 ± 0.05; C -0.225 ± 0.12
L15: E -0.766 ± 0.18; P -0.741 ± 0.15; G -0.93 ± 0.13; F -0.149 ± 0.096; I -0.387 ± 0.2; M -0.073 ± 0.084; R -0.869 ± 0.11; V -0.039 ± 0.059; C -0.433 ± 0.13; S -0.772 ± 0.12; T -0.891 ± 0.3; Q -0.75 ± 0.33
H7: V -0.202 ± 0.057; Q -0.043 ± 0.066; M -0.12 ± 0.085; E 0.011 ± 0.074; W -0.802 ± 0.21; Y -0.444 ± 0.13; T -0.175 ± 0.069; C -0.637 ± 0.13; I -0.642 ± 0.26; S -0.358 ± 0.065; P -0.881 ± 0.11; A -0.11 ± 0.051; G -0.705 ± 0.062; L -0.366 ± 0.055; N -0.292 ± 0.15; K -0.016 ± 0.1; D -0.796 ± 0.22; R -0.05 ± 0.048; F -0.521 ± 0.22
G9: V -0.551 ± 0.11; T -1 ± 0.29; W -0.786 ± 0.17; P -0.868 ± 0.12; C -0.781 ± 0.14; D -0.503 ± 0.17; E -0.273 ± 0.074; A -0.499 ± 0.074; H -0.667 ± 0.37; S -0.535 ± 0.081; Y -0.924 ± 0.39; N -0.047 ± 0.16; M -0.244 ± 0.11; Q -0.39 ± 0.099
S11: I -0.422 ± 0.19; C -0.342 ± 0.087; L -0.963 ± 0.12; D 0.092 ± 0.13; G -0.261 ± 0.056; Q -0.053 ± 0.076; F -0.654 ± 0.19; P -1.03 ± 0.24; R -0.965 ± 0.12; W -1.05 ± 0.25; N 0.009 ± 0.23; M -0.94 ± 0.24; T -0.314 ± 0.06; A -0.31 ± 0.073; V -0.84 ± 0.11; E -0.326 ± 0.066; K -0.761 ± 0.25
S22: C 0.048 ± 0.5; Y -0.646 ± 0.37
V23: I -0.073 ± 0.24; F -0.142 ± 0.092; N 0.097 ± 0.14; K -0.142 ± 0.089; D -0.335 ± 0.16; P -0.034 ± 0.05; C -0.22 ± 0.1; L -0.048 ± 0.042; Q 0.16 ± 0.056; A -0.12 ± 0.07; E -0.04 ± 0.1; R -0.027 ± 0.044; G -0.004 ± 0.068; H 0.02 ± 0.12
E14: V -0.02 ± 0.057; S -0.098 ± 0.057; I -0.278 ± 0.14; D -0.074 ± 0.085; T -0.198 ± 0.086; W -0.469 ± 0.14; K -0.347 ± 0.15; P -0.583 ± 0.09; M -0.185 ± 0.094; A -0.082 ± 0.068; Q -0.02 ± 0.056; G -0.426 ± 0.063; Y -0.432 ± 0.15; R -0.289 ± 0.05; H -0.156 ± 0.12; L -0.306 ± 0.065; C -0.23 ± 0.14
